The text below walks through data of patent US20250326842A1 (BEIGENE SWITZERLAND, published 2025).

Usually EC50 stands for the concentration giving half of the maximal effect. Low readings indicate higher potency in that assay, high ones lower potency in that assay. In general, Kd refers to the constant that tells how readily two partners part at equilibrium. Usually koff stands for the rate constant with which the complex falls apart. For orientation: kon means the rate constant with which the complex forms. For orientation: EC50 (read off the curve) means the concentration giving half of the maximal effect. A higher EC50 (read off the curve) goes with weaker potency. Broadly, the IC50 is the concentration that inhibits the measured activity by half. A lower IC50 goes with greater potency in that assay.

The target of assay [1] is T1, human PVRIG-mIgG2a (human, UniProt Q6DKI7 41-171, limits assumed).
T1 construct: also called hPVRIG-mIgG2a; hPVRIG; not shown: mouse IgG2a Fc
T1 sequence: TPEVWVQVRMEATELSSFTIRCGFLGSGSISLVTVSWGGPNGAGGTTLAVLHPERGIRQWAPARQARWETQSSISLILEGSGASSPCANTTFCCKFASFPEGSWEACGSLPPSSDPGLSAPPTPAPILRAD
The assay is described as follows: ELISA, hPVRIG-mIgG2a coated at 0.5 µg/mL. Background: An ELISA detects its analyte on a solid surface through an enzyme-linked reagent.

The target in a further assay is T2, FcγRIIA H131 (human, UniProt P12318 36-218, limits assumed).
T2 sequence (looked up): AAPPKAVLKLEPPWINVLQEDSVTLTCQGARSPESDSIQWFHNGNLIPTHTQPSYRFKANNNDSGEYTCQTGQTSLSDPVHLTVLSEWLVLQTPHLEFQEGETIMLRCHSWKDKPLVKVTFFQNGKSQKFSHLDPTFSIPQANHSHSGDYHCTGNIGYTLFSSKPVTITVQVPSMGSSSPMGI
The assay is described as follows: Biacore, KD from equilibrium analysis. As for the experimental part:
(§1) K¹ (M) values were calculated from the ratio of the kinetic constants as KD=koff/kₒₙ. K2 (M) values were determined by the analyte concentration at which half of the ligands are occupied at equilibrium.
For orientation: In SPR one partner is held on a chip, and binding of the other changes the refractive index at the surface.

The next assay concerns the target T3, FcγRIIA R131 (human, UniProt P12318 36-218, limits assumed).
T3 sequence (looked up): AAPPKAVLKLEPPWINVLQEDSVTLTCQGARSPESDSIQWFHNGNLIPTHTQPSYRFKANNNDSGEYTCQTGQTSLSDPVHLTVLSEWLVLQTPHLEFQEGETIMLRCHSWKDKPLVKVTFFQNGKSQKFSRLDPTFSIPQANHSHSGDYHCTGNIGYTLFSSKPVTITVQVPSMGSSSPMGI
As to the kind of experiment: Biacore, KD from equilibrium analysis. As for the experimental part:
as §1

For a further assay, the target named is T4, FcγRIIB (human, UniProt P31994 46-217, limits assumed).
T4 sequence (looked up): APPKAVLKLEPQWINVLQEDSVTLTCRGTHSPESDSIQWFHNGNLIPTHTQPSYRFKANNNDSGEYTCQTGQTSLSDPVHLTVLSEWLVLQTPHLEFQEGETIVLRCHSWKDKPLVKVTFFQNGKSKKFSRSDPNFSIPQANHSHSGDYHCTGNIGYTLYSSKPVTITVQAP
The assay is described as follows: Biacore, KD from equilibrium analysis. Here is the method:
as §1

A further assay deals with FcγRIIIA F158 (human, UniProt P08637 17-208, limits assumed). As to the kind of experiment: Biacore, KD from equilibrium analysis. Here is the method: as §1
FcγRIIIA F158, sequence (P08637 17-208 limits assumed): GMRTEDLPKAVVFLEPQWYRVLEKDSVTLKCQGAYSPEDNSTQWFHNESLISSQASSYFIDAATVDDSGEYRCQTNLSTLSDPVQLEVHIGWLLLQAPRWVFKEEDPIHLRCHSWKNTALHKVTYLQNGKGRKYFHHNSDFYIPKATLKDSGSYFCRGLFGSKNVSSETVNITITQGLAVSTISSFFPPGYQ
The target of a further assay is FcγRIIIA V158 (human, UniProt P08637 17-208, limits assumed). The assay is described as follows: Biacore, KD from equilibrium analysis. As for the experimental part:
as §1

In assay [2] the target is T5, human PVRIG expressed on cells (human, UniProt Q6DKI7 41-326).
T5 construct: Jurkat cells engineered to express human PVRIG; also called hPVRIG-Jurkat; native human PVRIG
T5 sequence: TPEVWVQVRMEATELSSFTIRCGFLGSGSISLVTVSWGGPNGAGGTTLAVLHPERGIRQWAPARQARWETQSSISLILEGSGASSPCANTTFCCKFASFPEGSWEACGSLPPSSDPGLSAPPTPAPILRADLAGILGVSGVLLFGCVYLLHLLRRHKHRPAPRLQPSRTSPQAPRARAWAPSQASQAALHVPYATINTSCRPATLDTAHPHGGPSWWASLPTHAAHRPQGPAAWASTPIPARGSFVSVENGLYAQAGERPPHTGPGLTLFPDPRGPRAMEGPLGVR
As to the kind of experiment: flow cytometry on HuPVRIG-overexpressed Jurkat cells. For orientation: Flow cytometry measures light scatter and fluorescence of single cells or particles in a stream.

The target of assay [3] is T6, Human Serum Albumin Protein His Tag (human, UniProt P02768 25-609).
T6 construct: also called negative control protein smear; not shown: His tag
T6 sequence (P02768 25-609 limits assumed): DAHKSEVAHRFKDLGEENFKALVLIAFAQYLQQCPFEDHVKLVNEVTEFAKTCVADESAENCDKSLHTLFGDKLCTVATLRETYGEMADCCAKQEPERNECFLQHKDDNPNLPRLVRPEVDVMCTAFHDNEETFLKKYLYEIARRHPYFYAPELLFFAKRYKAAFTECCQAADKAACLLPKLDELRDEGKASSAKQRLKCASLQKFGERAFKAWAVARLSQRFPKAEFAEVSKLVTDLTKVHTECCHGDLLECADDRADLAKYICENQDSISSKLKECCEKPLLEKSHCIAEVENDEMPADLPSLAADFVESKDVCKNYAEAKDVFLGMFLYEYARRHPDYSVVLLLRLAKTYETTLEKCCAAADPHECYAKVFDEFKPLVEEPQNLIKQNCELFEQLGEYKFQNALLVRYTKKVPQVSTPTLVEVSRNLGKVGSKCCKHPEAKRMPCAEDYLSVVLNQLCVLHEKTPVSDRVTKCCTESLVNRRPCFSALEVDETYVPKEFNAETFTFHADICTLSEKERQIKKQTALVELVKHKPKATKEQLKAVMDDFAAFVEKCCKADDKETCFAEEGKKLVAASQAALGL
The assay is described as follows: immunohistochemistry on protein smears, Biotin-BGA384. The source says:
Materials and Methods: A total of 35 tissue types, each in triplicate from 3 donors, were used for the evaluation. […] 0.5 and […] Biotin-Human IgG1-Kappa (IgG1 isotype control), and 0.01 mol/L phosphate-buffered saline (reagent control).

Assay [4] addresses T7, human PVRIG recombinant protein (human, UniProt Q6DKI7 41-171).
T7 construct: also called human PVRIG protein; recombinant human antigen PVRIG
T7 sequence: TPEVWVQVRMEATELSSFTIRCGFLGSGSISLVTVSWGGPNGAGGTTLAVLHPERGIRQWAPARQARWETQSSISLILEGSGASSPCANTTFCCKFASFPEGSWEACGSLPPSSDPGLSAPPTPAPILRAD
As to the kind of experiment: SPR, antibody captured via anti-human Fc, human PVRIG analyte. The source says: For affinity determination, anti-PVRIG antibodies were captured by anti-human Fc antibodies, and used in the affinity assay based on surface plasmon resonance (SPR) technology.

The target of assay [5] is T5, human PVRIG expressed on cells. The assay is described as follows: flow cytometry on Jurkat cells expressing human PVRIG, anti-hFc-647 detection [panel B]. As for the experimental part:
To evaluate the binding activity of anti-PVRIG antibodies to native PVRIG on living cells, Jurkat cells were engineered to express human PVRIG. Jurkat cells expressing PVRIG were seeded in 96 well plates and were incubated with serially diluted anti-PVRIG antibodies. […] EC50 values for dose dependent binding to human native PVRIG were determined by fitting the dose response data to the four-parameter logistic model with GraphPad Prism™.

In assay [6] the target is T1, human PVRIG-mIgG2a. As to the kind of experiment: cell-based competition, BGA384 against binding of hPVRIG-mIgG2a (300 ng/ml) to Farage-hPVRL2 cells, flow cytometry. The source says: The bound human PVRIG was detected with PE anti-mouse IgG2a antibody by flow cytometry.
A further assay addresses Human C1q (human, UniProt P02745 23-245; P02746 28-253; P02747 29-245). The assay is described as follows: ELISA: plate coated with increasing amounts of antibody, human C1q at 8 µg/mL, anti-C1q antibody detection. As for the experimental part: Human C1q (100 uL total: 8 μg/mL) was incubated in the antibody-coated wells. Bound C1q was detected by a specific anti-C1q monoclonal antibody. ELISA readings at 450 nm were plotted on the y-axis.

Another assay concerns the target T8, hPVRIG-ECD-his (human, UniProt Q6DKI7 41-171).
T8 construct: Acrobiosystems PVG-H52H4; also called hPVRIG-His; human PVRIG-His; not shown: His tag
T8 sequence: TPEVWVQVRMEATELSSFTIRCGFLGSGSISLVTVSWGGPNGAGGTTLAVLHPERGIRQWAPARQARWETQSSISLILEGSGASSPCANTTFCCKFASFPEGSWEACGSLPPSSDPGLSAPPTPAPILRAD
The assay is described as follows: blocking ELISA: hPVRIG-His coated, antibody mixed with PVRL2-biotin at 1 ug/mL; % inhibition of PVRL2 binding [panel B].

FcγRIIIA V158, sequence (P08637 17-208 F176V limits assumed): as the sequence (P08637 17-208 limits assumed) above, with F160V counted along it
Human C1q, sequence (P02745 23-245 limits assumed, chain 1 of 3): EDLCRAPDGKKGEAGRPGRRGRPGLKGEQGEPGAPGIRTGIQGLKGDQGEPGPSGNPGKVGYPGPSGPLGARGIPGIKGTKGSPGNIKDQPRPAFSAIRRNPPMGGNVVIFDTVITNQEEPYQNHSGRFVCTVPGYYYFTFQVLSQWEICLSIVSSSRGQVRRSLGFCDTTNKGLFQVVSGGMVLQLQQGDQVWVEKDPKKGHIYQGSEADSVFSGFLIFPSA
Human C1q, sequence (P02746 28-253 limits assumed, chain 2 of 3): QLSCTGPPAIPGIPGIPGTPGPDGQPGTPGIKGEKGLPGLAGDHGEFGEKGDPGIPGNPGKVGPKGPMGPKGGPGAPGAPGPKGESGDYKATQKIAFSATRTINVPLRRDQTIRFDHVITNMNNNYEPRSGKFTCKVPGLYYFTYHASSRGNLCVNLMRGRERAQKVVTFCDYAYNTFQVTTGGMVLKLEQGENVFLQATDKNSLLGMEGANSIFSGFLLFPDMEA
Human C1q, sequence (P02747 29-245 limits assumed, chain 3 of 3): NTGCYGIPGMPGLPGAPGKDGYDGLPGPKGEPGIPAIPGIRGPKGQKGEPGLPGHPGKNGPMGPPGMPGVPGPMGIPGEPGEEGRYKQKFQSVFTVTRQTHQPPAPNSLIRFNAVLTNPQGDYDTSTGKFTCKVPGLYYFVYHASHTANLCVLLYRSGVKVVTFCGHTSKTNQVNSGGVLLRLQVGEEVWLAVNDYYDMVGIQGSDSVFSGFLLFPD

B1: BGA384 (antibody, human IgG1, kappa)
heavy: not shown
light: QIVLTQSPATLSLSPGERATLSCSAGSSVNYMHWFQQKPGQAPRLLIYSTSNLASGVPARFSGSGSGTDYTLTISSLEPEDFAVYYCQQRSSLPFTFGQGTKLEIKRTVAAPSVFIFPPSDEQLKSGTASVVCLLNNFYPREAKVQWKVDNALQSGNSQESVTEQDSKDSTYSLSSTLTLSKADYEKHKVYACEVTHQGLSSPVTKSFNRGEC
notes: also called BGB-A538; BGA384 WT
For B1, the values for the EC50 (in the assay with human PVRIG-mIgG2a [1]; in [2]) were 0.00879 µg/mL and 0.0269 µg/mL, respectively. For the same molecule, the Kd was found to be 1480 nM with FcγRIIA H131; 1920 nM with FcγRIIA R131; 9230 nM with FcγRIIB; 689 nM with FcγRIIIA F158; 297 nM with FcγRIIIA V158; 0.258 nM in assay [4]. In addition, in assay [3], the binding result is “no binding (tested: 0.5 and 1 µg/mL)”. For the same molecule, the koff in assay [4] was 0.000304 s⁻¹. Further, in assay [4], the kon is 1.18e+06 M⁻¹ s⁻¹. Further, the figures for the “EC50 (read off the curve)” value (in assay [5]; with Human C1q) were ~0.03 µg/mL and ~2 µg/mL, respectively. In addition, the IC50 in the assay with human PVRIG-mIgG2a [6] stood at 0.109 µg/mL. For the same molecule, the “IC50 (read off the curve)” value in the assay with hPVRIG-ECD-his is ~0.4 µg/mL.
